Values joined by “and” are separate entries in the source; they are usually repeats but may differ in a detail not shown here. Equal values may be shown once. Read-outs that look alike come from different tables or passages of the source.
Experiments:
[1] = target: human FcγRIIIa (F158 allele) (human) (UniProt P08637)
[2] = target: human FcγRIIIa (V158 allele) (human) (UniProt P08637)
[3] = target: human FcγRIIb (human) (UniProt P31994); assay: MSD
[4] = target: human FcRn (human) (UniProt P55899); assay: MSD [cont'd]
[5] = target: human FcγRIIIa (F158 allele) (human) (UniProt P08637); assay: MSD [cont'd]
[6] = target: human FcγRIIIa (V158 allele) (human) (UniProt P08637); assay: MSD [cont'd]
[7] = target: human FcγRIIIb (human) (UniProt O75015); assay: MSD [cont'd]
[8] = target: human FcγRIIa (H131 allele) (human) (UniProt P12318); assay: MSD [cont'd]
[9] = target: human FcγRIIa (R131 allele) (human) (UniProt P12318); assay: MSD [cont'd]
[10] = target: human FcγRIIb (human) (UniProt P31994); assay: MSD [cont'd]
[11] = target: human FcγRIIIa (F158 allele) (human) (UniProt P08637); remark: listed apart in the source
[12] = target: human FcγRIIIa (V158 allele) (human) (UniProt P08637); remark: listed apart in the source
[13] = target: human FcγRIIa (H131 allele) (human) (UniProt P12318)
[14] = target: human FcγRIIb (human) (UniProt P31994)
[15] = target: human FcγRIIIa (F158 allele) (human) (UniProt P08637); assay: MSD
[16] = target: human FcγRIIIa (V158 allele) (human) (UniProt P08637); assay: MSD
[17] = target: human FcγRIIIb (human) (UniProt O75015); assay: MSD
[18] = target: human FcγRIIa (H131 allele) (human) (UniProt P12318); assay: MSD
[19] = target: human FcγRIIa (R131 allele) (human) (UniProt P12318); assay: MSD
[20] = target: human C1q (human) (UniProt P02745); assay: MSD [cont'd]
[21] = target: human FcγRIIb (human) (UniProt P31994); assay: Table B summary, vs fucosylated wild-type human IgG1
[22] = target: human FcRn (human) (UniProt P55899); assay: MSD, pH 6 [cont'd]
[23] = target: N1 neuraminidase from A/Swine/Jiangsu/J004/2018 (Influenza A virus A/Swine/Jiangsu/J004/2018 (H1N1))
[24] = target: N1 neuraminidase from A/Swine/Jiangsu/J004/2018 (Influenza A virus A/Swine/Jiangsu/J004/2018 (H1N1)); remark: listed apart in the source
[25] = target: N2 neuraminidase from A/South Australia/34/2019 (Influenza A virus A/South Australia/34/2019)
[26] = target: N2 neuraminidase from A/South Australia/34/2019 (Influenza A virus A/South Australia/34/2019); remark: listed apart in the source
[27] = target: N1 neuraminidase from A/Swine/Jiangsu/J004/2018 (Influenza A virus A/Swine/Jiangsu/J004/2018 (H1N1)); remark: listed apart in the source
[28] = target: N1; assay: Bio-Layer Interferometry (BLI)
[29] = target: N2; assay: Bio-Layer Interferometry (BLI)
[30] = target: N9 NA (FIGS. 96A-96C); assay: Bio-Layer Interferometry (BLI)
[31] = target: N9; assay: Bio-Layer Interferometry (BLI)
[32] = target: B/BRISBANE/60/2008 (VICTORIA) (Influenza B virus); assay: flow cytometry, NA transiently expressed on Expi-CHO cells
[33] = target: B/MALAYSIA/3120318925/2013 (YAMAGATA) (Influenza B virus); assay: as above
[34] = target: B/WISCONSIN/1/2010 (YAMAGATA) (Influenza B virus); assay: as above
[35] = target: IBV neuraminidase from B/Malaysia/2506/2004 (Victoria) (Influenza B virus B/Malaysia/2506/2004); assay: as above
[36] = target: IBV neuraminidase from B/Yamanashi/166/1998 (Yamagata) (Influenza B virus B/Yamanashi/166/1998); assay: as above
[37] = target: N1 neuraminidase from A/Stockholm/18/2007 (Influenza A virus A/Stockholm/18/2007); assay: as above
[38] = target: N2 A/HONG KONG/68 (Influenza A virus); assay: as above
[39] = target: N3 neuraminidase from A/Canada/rv504/2004 (Influenza A virus A/Canada/rv504/2004); assay: as above
[40] = target: N4 A/MALLARD DUCK/…/30/2011 (Influenza A virus); assay: as above
[41] = target: N6 neuraminidase from A/swine/Ontario/01911/1/99 (Influenza A virus A/swine/Ontario/01911/1/99); assay: as above
[42] = target: N7 neuraminidase from A/Netherlands/078/03 (Influenza A virus A/Netherlands/078/03); assay: as above
[43] = target: N8 A/HARBOR SEAL/NEW …/179629/2011 (Influenza A virus); assay: as above
[44] = target: N9 neuraminidase from A/Anhui/1/2013 (Influenza A virus A/Anhui/1/2013 (H7N9)); assay: as above
[45] = target: NA-9; assay: BLI, antibody loaded on the sensor (Loading Sample ID: FNI9), NA-9 as sample
[46] = target: N1 neuraminidase from A/Swine/Jiangsu/J004/2018 (Influenza A virus A/Swine/Jiangsu/J004/2018 (H1N1)); assay: flow cytometry, cells infected with A/Swine/Jiangsu/J004/2018, antibody 2 µg/ml
[47] = target: N1 neuraminidase from A/Swine/Jiangsu/J004/2018 (Influenza A virus A/Swine/Jiangsu/J004/2018 (H1N1)); assay: flow cytometry, cells infected with A/Swine/Jiangsu/J004/2018, antibody 10 µg/ml
[48] = target: N1 neuraminidase from A/Swine/Jiangsu/J004/2018 (Influenza A virus A/Swine/Jiangsu/J004/2018 (H1N1)); assay: flow cytometry, cells infected with A/Swine/Jiangsu/J004/2018, antibody 50 µg/ml
[49] = target: N1; assay: Bio-Layer Interferometry (BLI); printed as kdis
[50] = target: N2; assay: Bio-Layer Interferometry (BLI); printed as kdis
[51] = target: N9; assay: Bio-Layer Interferometry (BLI); printed as kdis
[52] = target: IBV neuraminidase from B/Lee/10/1940 (Ancestral) (Influenza B virus B/Lee/10/1940) (UniProt P03474); assay: flow cytometry, NA transiently expressed on Expi-CHO cells
[53] = target: N2 neuraminidase from A/Leningrad/134/17/57 (Influenza A virus A/Leningrad/134/17/57) (UniProt Q67214); assay: as above
[54] = target: N2 neuraminidase from A/Washington/01/2007 (Influenza A virus A/Washington/01/2007); assay: as above
[55] = target: N5 A/AQUATIC BIRD/KOREA/CN5/2009 (Influenza A virus); assay: as above

Sequence of human FcγRIIIa (F158 allele) (human) (P08637 17-208 limits assumed): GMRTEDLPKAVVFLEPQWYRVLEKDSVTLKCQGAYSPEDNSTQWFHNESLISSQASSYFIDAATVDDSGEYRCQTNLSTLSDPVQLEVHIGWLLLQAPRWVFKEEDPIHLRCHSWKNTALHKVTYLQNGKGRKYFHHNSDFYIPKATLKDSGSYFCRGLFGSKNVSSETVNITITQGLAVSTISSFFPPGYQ
Sequence of human FcγRIIa (R131 allele) (human) (P12318 34-218 H167R limits assumed): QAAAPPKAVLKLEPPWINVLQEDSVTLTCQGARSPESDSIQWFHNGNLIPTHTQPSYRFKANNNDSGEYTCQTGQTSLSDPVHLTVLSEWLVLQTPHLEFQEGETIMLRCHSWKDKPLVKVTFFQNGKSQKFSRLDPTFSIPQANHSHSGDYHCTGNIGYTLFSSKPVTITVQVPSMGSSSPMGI
Sequence of human FcγRIIIa (V158 allele) (human) (P08637 17-208 F176V limits assumed): as the sequence (P08637 17-208 limits assumed) above, with F160V counted along it
Sequence of human FcRn (human) (P55899 24-297 limits assumed, chain 1 of 2): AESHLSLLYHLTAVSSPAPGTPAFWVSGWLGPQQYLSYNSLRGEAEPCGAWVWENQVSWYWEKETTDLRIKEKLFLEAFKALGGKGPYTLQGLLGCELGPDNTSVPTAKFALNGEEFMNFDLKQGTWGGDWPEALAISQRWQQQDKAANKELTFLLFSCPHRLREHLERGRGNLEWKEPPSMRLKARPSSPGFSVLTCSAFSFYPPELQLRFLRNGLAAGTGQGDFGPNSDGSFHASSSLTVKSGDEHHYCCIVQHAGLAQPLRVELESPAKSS
Sequence of human FcRn (human) (chain, as listed by the source limits assumed, chain 2 of 2): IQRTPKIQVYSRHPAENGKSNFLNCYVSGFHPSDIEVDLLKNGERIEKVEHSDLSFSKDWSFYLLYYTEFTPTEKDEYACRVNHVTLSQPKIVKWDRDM
Sequence of human C1q (human) (P02745 23-245 limits assumed, chain 1 of 3): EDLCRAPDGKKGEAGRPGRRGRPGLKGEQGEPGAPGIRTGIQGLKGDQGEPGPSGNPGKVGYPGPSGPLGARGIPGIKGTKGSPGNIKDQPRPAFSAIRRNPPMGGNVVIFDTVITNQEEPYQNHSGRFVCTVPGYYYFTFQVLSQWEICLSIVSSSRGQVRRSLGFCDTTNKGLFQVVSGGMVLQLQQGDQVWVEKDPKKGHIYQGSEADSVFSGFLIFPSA
Sequence of human C1q (human) (P02746 28-253 limits assumed, chain 2 of 3, further chain): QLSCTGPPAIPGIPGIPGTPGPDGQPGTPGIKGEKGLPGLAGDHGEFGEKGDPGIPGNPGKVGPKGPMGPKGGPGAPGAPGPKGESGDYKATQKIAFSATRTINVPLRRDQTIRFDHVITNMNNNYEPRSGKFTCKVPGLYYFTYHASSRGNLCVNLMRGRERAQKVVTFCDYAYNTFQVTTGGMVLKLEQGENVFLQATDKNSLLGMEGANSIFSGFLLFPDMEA
Sequence of human C1q (human) (P02747 29-245 limits assumed, chain 3 of 3, further chain): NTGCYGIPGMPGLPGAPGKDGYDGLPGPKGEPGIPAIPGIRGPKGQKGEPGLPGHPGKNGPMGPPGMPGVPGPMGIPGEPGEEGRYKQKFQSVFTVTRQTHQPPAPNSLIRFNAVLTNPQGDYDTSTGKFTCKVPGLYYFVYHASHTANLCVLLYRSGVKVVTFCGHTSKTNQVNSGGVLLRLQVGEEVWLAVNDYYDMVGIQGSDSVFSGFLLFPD
Sequence of human FcγRIIIb (human) (O75015 17-200 limits assumed): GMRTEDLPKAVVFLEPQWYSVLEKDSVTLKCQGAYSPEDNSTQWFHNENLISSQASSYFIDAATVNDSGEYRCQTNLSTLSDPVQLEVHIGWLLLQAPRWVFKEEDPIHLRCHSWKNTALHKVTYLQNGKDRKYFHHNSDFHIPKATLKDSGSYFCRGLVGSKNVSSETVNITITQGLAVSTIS
Sequence of human FcγRIIb (human) (P31994 43-217 limits assumed): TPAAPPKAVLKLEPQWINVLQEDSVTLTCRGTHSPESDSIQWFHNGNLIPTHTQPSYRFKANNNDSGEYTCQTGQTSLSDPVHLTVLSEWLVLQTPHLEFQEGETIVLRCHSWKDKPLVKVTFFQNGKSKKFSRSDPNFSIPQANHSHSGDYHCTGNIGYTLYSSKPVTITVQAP
Sequence of human FcγRIIa (H131 allele) (human) (P12318 34-218 limits assumed): as the sequence (P12318 34-218 H167R limits assumed) above, with R134H counted along it

G236R_L328R-afuc (antibody)
FcγR reporter signaling, fold to wt-fucose [cont'd] [1]: 0.05 fold
FcγR reporter signaling, fold to wt-fucose [cont'd] [2]: 0.2 fold
fold-change (reference not given) [3]: 0.2 fold
fold to wt-fucose [4]: 1.09 fold
fold to wt-fucose [5]: 0.33 fold
fold to wt-fucose [6]: 0.07 fold
fold to wt-fucose [7]: 0.6 fold
fold to wt-fucose [8]: 0.16 fold
fold to wt-fucose [9]: 0.24 fold
fold to wt-fucose [10]: 0.17 fold

IgG1 antibody with Fc variant G236S_G420V_G446E_L309T
FcγR reporter signaling, fold-change vs wt [cont'd] [11]: 0.03 fold
FcγR reporter signaling, fold-change vs wt [cont'd] [12]: 0.06 fold
FcγR reporter signaling, fold-change vs wt [cont'd] [13]: 2.56 fold
FcγR reporter signaling, fold-change vs wt [cont'd] [14]: 0.22 fold
fold-change vs wt [15]: 0.32 fold
fold-change vs wt [16]: 0.09 fold
fold-change vs wt [17]: 0.56 fold
fold-change vs wt [18]: 4.85 fold
fold-change vs wt [19]: 1.47 fold
fold-change vs wt [3]: 0.39 fold
fold-change vs wt [20]: 0.21 fold
fold-change vs wt [4]: 0.77 fold
fold-change in binding vs fucosylated wild-type human IgG1 [21]: 0.5 fold

IgG1 antibody with Fc variant G236A_R292P
FcγR reporter signaling, fold-change vs wt [cont'd] [11]: 0.29 fold
FcγR reporter signaling, fold-change vs wt [cont'd] [12]: 0.54 fold
FcγR reporter signaling, fold-change vs wt [cont'd] [13]: 1.47 fold
FcγR reporter signaling, fold-change vs wt [cont'd] [14]: 0.15 fold
fold-change vs wt [15]: 0.6 fold
fold-change vs wt [16]: 0.41 fold
fold-change vs wt [17]: 0.95 fold
fold-change to WT Fc [18]: 5.65 fold
fold-change vs wt [18]: 5.65 fold
fold-change to WT Fc [19]: 1.04 fold
fold-change vs wt [19]: 1.04 fold
fold-change to WT Fc [3]: 0.446 fold
fold-change vs wt [3]: 0.45 fold
fold-change to WT Fc [20]: 0.125 fold
fold-change vs wt [20]: 0.13 fold
fold-change vs wt [4]: 0.81 fold
fold-change to WT Fc [5]: 0.603 fold
fold-change to WT Fc [6]: 0.411 fold
fold-change to WT Fc [22]: 0.809 fold
fold-change in binding vs fucosylated wild-type human IgG1 [21]: 0.5 fold

FNI9 (antibody)
% Alexa 647-A+ cells [23]: 84% and 83.5%
% Alexa 647-A+ cells [24]: 82.1% and 78%
% Alexa 647-A+ cells [25]: 66.1% and 71.3%
% Alexa 647-A+ cells [26]: 57% and 68.8%
% of cells in the Alexa 647-A positive gate [27]: 78%
Kd [28]: 0.0164 nM
Kd [29]: < 0.001 nM
Kd [30]: < 0.001 nM
Kd [31]: < 0.001 nM
lowest concentration at which binding was observed (EC50 scale class) [32]: 0.4 µg/mL
lowest concentration at which binding was observed (EC50 scale class) [33]: 0.4 µg/mL
lowest concentration at which binding was observed (EC50 scale class) [34]: 0.4 µg/mL
lowest concentration at which binding was observed (EC50 scale class) [35]: 0.4 µg/mL
lowest concentration at which binding was observed (EC50 scale class) [36]: 0.4 µg/mL
lowest concentration at which binding was observed (EC50 scale class) [37]: 0.4 µg/mL
lowest concentration at which binding was observed (EC50 scale class) [38]: 0.4 µg/mL
lowest concentration at which binding was observed (EC50 scale class) [39]: 0.4 µg/mL
lowest concentration at which binding was observed (EC50 scale class) [40]: 0.4 µg/mL
lowest concentration at which binding was observed (EC50 scale class) [41]: 0.4 µg/mL
lowest concentration at which binding was observed (EC50 scale class) [42]: 50 µg/mL
lowest concentration at which binding was observed (EC50 scale class) [43]: 50 µg/mL
lowest concentration at which binding was observed (EC50 scale class) [44]: 0.4 µg/mL
Kd [45]: 0.088 nM
% of cells in the Alexa 647-A positive gate [46]: 82.1%
% of cells in the Alexa 647-A positive gate [47]: 83.5%
% of cells in the Alexa 647-A positive gate [48]: 84%

1G01 (antibody)
Kd [28]: 0.868 nM
kon [28]: 55100 M⁻¹ s⁻¹
Kd [29]: < 0.001 nM
kon [29]: 40200 M⁻¹ s⁻¹
Kd [31]: < 0.001 nM
kon [31]: 106000 M⁻¹ s⁻¹
koff [49]: 4.79e-05 s⁻¹
koff [50]: < 1e-07 s⁻¹
koff [51]: < 1e-07 s⁻¹
lowest concentration at which binding was observed (EC50 scale class) [33]: 10 µg/mL
lowest concentration at which binding was observed (EC50 scale class) [34]: 2 µg/mL
lowest concentration at which binding was observed (EC50 scale class) [52]: 10 µg/mL
lowest concentration at which binding was observed (EC50 scale class) [35]: 0.4 µg/mL
lowest concentration at which binding was observed (EC50 scale class) [36]: 2 µg/mL
lowest concentration at which binding was observed (EC50 scale class) [37]: 0.4 µg/mL
lowest concentration at which binding was observed (EC50 scale class) [38]: 0.4 µg/mL
lowest concentration at which binding was observed (EC50 scale class) [53]: 0.4 µg/mL
lowest concentration at which binding was observed (EC50 scale class) [54]: 0.4 µg/mL
lowest concentration at which binding was observed (EC50 scale class) [39]: 0.4 µg/mL
lowest concentration at which binding was observed (EC50 scale class) [40]: 0.4 µg/mL
lowest concentration at which binding was observed (EC50 scale class) [55]: 2 µg/mL
lowest concentration at which binding was observed (EC50 scale class) [41]: 0.4 µg/mL
lowest concentration at which binding was observed (EC50 scale class) [42]: 0.4 µg/mL
lowest concentration at which binding was observed (EC50 scale class) [43]: 0.4 µg/mL
lowest concentration at which binding was observed (EC50 scale class) [44]: 0.4 µg/mL

From US20260184814A1, “BROADLY NE[…] INFLUENZA NEURAMINIDASE” (priority 2022, published 2026)
